The values that follow come from the RNAGym collection of RNA variant scans (doi:10.7554/elife.80360).

First the molecules themselves.
B1: Hairpin Ribozyme (parent)
chain: GUCCUCUUUCACGUGCGCGUGAAAGAGAGAAGUGAACCAGAGAAACACACGUUGUGGUAUAUUACCUGGUA

In this series the parent is B1. The experiment in a line: self-cleavage, relative activity (ratio to wild type); higher = more cleavage; co-transcriptional.
Consider GUCCUCUUUCACGUGCGCGCGAAAGAGAGAAGUGAACCAGAGAAACACACGUUGUGGUAUAUUACCUGUUA, for which the self-cleavage was 0.23.
The figure for GUCCUCUUUCACGUGCGCGCGAAAGAGAGAAGUGAACCAGAGAAACAAACGUUGUGGUAUAUUACCUGGUA is 0.221.
The figure for GUCCUCUUUCACGUGCGCGCGAAAGAGAGAAGUGAACCAGAGGAACACACGUUGUGGUAUAUUACCUGGUA is 0.105; for GUCCUCUUUCACGUGCGCGCGAAAGAUAGAAGUGAACCAGAGAAACACACGUUGUGGUAUAUUACCUGGUA it is 0.181; for GUCCUCUUUCACGUGCGCGGGAAAGAGAGAAGUGAACCAGAGAAAAACACGUUGUGGUAUAUUACCUGGUA it is 0.229.
Turning to GUCCUCUUUCACGUGCGCGGGAAAGAGAGAAGUGAACCAGAGAAAGACACGUUGUGGUAUAUUACCUGGUA, the self-cleavage was found to be 0.219.
As for GUCCUCUUUCACGUGCGCGCGAAAGAGAGAAGUGAACCAGAUAAACACACGUUGUGGUAUAUUACCUGGUA, the figure is 0.172.
With GUCCUCUUUCACGUGCGCGGGAAAGAGAGAAGUGAACCAGAGAAACACACGUUGUGGUAUUUUACCUGGUA, the self-cleavage is 0.142.
As for GUCCUCUUUCACGUGCGCGCGAAAGAGAGAAGUGAACCAGAGAAACACACGUUGUGAUAUAUUACCUGGUA, the figure is 0.167; as for GUCCUCUUUCACGUGCGCGCGAAAGAGAGAAGUGAACCAGAGAAACACACGUUGUGUUAUAUUACCUGGUA, 0.341; as for GUCCUCUUUCACGUGCGCGCCAAAGAGAGAAGUGAACCAGAGAAACACACGUUGUGGUAUAUUACCUGGUA, 0.778.
The figure for GUCCUCUUUCACGUGCGCGCGAAAGAGAGAAGUGAACCAGAGAAACACACGAUGUGGUAUAUUACCUGGUA is 0.957; for GUCCUCUUUCACGUGCGCGCGAAAGAGAGAAGUGAACCAGAGAAACACACGGUGUGGUAUAUUACCUGGUA it is 1.12; for GUCCUCUUUCACGUGCGCGCGAAAGAGAGAAGUGAACCAGAGAAACACACGCUGUGGUAUAUUACCUGGUA it is 1.03.
The figure for GUCCUCUUUCACGUGCGCGCGAAAGAGAGAAGUGAACCAGAGAUACACACGUUGUGGUAUAUUACCUGGUA is 0.115; for GUCCUCUUUCACGUGCGCGCGAAAGAGAGAAGUGAACCAGAGAGACACACGUUGUGGUAUAUUACCUGGUA it is 0.204; for GUCCUCUUUCACGUGCGCGGGAAAGAGAGAAGUGAACCAGAGAAACACACGUUGUGGUAUAUUACCUGGUC it is 1.25.
As to GUCCUCUUUCACGUGCGCGCGAAAGAGAGAAGUGAACCAGAGAAACACACGUUGUGGUAUAUUACCUGGUG, the self-cleavage turned out to be 1.12.
As for GUCCUCUUUCACGUGCGCGCGAAAGAGAGAAGUGAACCAGAGAAACACACGUUGUGGUAUAUUGCCUGGUA, the figure is 0.558; as for GUCCUCUUUCACGUGCGCGCGAAAGAGAGAAGUGAACCAGAGAAACACACGUUGUGGUAUAUUCCCUGGUA, 0.151.
The figure for GUCCUCUUUCACGUGCGCGCGAAAGAGAGAAGUGAACCAGAGAAACACACGUCGUGGUAUAUUACCUGGUA is 0.998; for GUCCUCUUUCACGUGCGCGGGAAGGAGAGAAGUGAACCAGAGAAACACACGUUGUGGUAUAUUACCUGGUA it is 0.673.
The figure for GUCCUCUUUCACGUGCGCGGGAAAGAGAGAAGUGAACCAGAGCAACACACGUUGUGGUAUAUUACCUGGUA is 0.214; for GUCCUCUUUCACGUGCGCGGGAAAGAGAGAAGUGAACCAGAGUAACACACGUUGUGGUAUAUUACCUGGUA it is 0.189.
As for GUCCUCUUUCACGUGCGCGGGAAAGAGAGAAGUGAACCAGAGGAACACACGUUGUGGUAUAUUACCUGGUA, the self-cleavage came out at 0.206.
As for GUCCUCUUUCACGUGCGCGGGAAAGAGAGAAGUGAACCAGAGAAACCCACGUUGUGGUAUAUUACCUGGUA, the figure is 0.299; as for GUCCUCUUUCACGUGCGCGGGAAAGAGAGAAGUGAACCAGAGAAACGCACGUUGUGGUAUAUUACCUGGUA, 0.0572.
For the variant GUCCUCUUUCACGUGCGCGGGAAAGAGCGAAGUGAACCAGAGAAACACACGUUGUGGUAUAUUACCUGGUA, the self-cleavage amounted to 0.462.
With GUCCUCUUUCACGUGCGCGGGAAAGAGGGAAGUGAACCAGAGAAACACACGUUGUGGUAUAUUACCUGGUA, the self-cleavage was 1.01.
The figure for GUCCUCUUUCACGUGCGCGCGAAAGAGAGAAGUGAAUCAGAGAAACACACGUUGUGGUAUAUUACCUGGUA is 0.756; for GUCCUCUUUCACGUGCGCGCGAAAGAGAGAAGUGAACCAGAGAAACACACAUUGUGGUAUAUUACCUGGUA it is 1.19; for GUCCUCUUUCACGUGCGCGCGAAAGAGAGAAGUGAACCACAGAAACACACGUUGUGGUAUAUUACCUGGUA it is 0.218.
As for GUCCUCUUUCACGUGCGCGCGAAAGAGAGAAGUGAACCAGAGAACCACACGUUGUGGUAUAUUACCUGGUA, the figure is 0.105.
The figure for GUCCUCUUUCACGUGCGCGGGAAAGAGAGAAGUGAACCAGAGACACACACGUUGUGGUAUAUUACCUGGUA is 0.162; for GUCCUCUUUCACGUGCGCGGGAAAGAGAGAAGUGAACCAGAGAGACACACGUUGUGGUAUAUUACCUGGUA it is 0.143.
Turning to GUCCUCUUUCACGUGCGCGCGAAAGAGAGAAGUGAACCAGAGAAACACACGUUGUGGGAUAUUACCUGGUA, the self-cleavage is 0.785.
As for GUCCUCUUUCACGUGCGCGGGAAAGUGAGAAGUGAACCAGAGAAACACACGUUGUGGUAUAUUACCUGGUA, the figure is 0.683; as for GUCCUCUUUCACGUGCGCGCGAAAGAGAGAAGUGAACCAGAGAAACACACGUUAUGGUAUAUUACCUGGUA, 0.544.
